# According to the nanobody polyreactivity screen of Harvey et al. (2022):
# Test: yeast display, Sf9 membrane polyspecificity reagent, FACS + sequencing; frameworks hold sequencing errors
# In short: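 Synthetic nanobody libraries on Saccharomyces cerevisiae BJ5465 were galactose-induced for 36–48 hours, stained 1 hour at 4 °C with 10% biotinylated, detergent-solubilized Sf9 membrane reagent and enriched on streptavidin microbeads. FACS then separated cells into low and high (top ~1%) gates by anti-HA (expression) and streptavidin (reagent binding) fluorescence. Genes were colony-PCR amplified, MiSeq 2 × 250 sequenced and CDR-length filtered. A clone's polyreactivity label is that of its gate of origin.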
row,Sequence,polyreactivity (PSR sort gate)
1,QVQLVESGGGLVQAGGSLRLSCAASGRTFGIYAMGWYRQAPGKERELVATISWRGGSTYYADSVKGRFTISRDNAKNSVYLQMNSLKPEDTAVYYCAAGYYPYWGQGTQVTVSS,low polyreactivity
2,QVQLVESGGGLVQAGGSLRLSCAASGFTFKGNTMGWYRQAPGKERELVATITRGGTTYYADSVKGRFTISRDNAKNTVYLQMNSLKPEDTSVYYCAAVVYRPYRWQYDYWGQGTQVTVSS,high polyreactivity
3,QVQLVESGGGLVQAGGSLRLSCAASGIIFGTYAMGWYRQAPGKERELVASITNGGNTNYADSVKGRFTISRDNAKNTVYLQMNSLKPEDTAVYYCAKDVPYWRPVVRYDYWGQGTQVTVSS,low polyreactivity
4,QVQLVESGGGLVQAGGSLRLSCAASGFTFQVNTMGWYRQAPGKERELVAAISWSGGSTYYADSVKGRFTISRDNAKNTVYLQMNSLKPEDTAVYYCNAVPVSYRGGYWGQGTQVTVSS,low polyreactivity
5,QVQLVESGGGLVQAGGSLRLSCAASGFILDYNAMGWYRQAPGKERELVAAITNGGITYYADSVKGRFTISRDNAQNTVYLQMNSLKPEDTAVYYCAADNDTDHSSATYGYDYWGQGTQVTVSS,low polyreactivity
6,QVQLVESGGGLVQAGGSLRLSCAASGSILPYNAMGWYRQAPGKERELVASISRGGGTNYADSVKGRFTISRDNAKNTVYLQMNSLKPEDTAVYYCAARTLRVDYDSHWYSLVDYWGQGTQVTVSS,low polyreactivity
7,QVQLVESGGGLVQAGGSLRLSCAASGRTFFKYAMGWYRQAPGKERELVAAITGRGGSTYADSVKGRFTISRDNAKNTVYLQMNSLKPEDTAVYYCAKVYQRGAQYYYYKYDYWGQGTQVTVSS,high polyreactivity
8,QVQLVESGGGLVQAGGSLRLSCAASGSIFIVYAMGWYRQAPGKERELVATITSGGSTNYADSVKGRFTISRDNAKNTVYVQMNSLKPEVTAVYYCAAESYWGSGVVPGYDYWGQGTQVTVSS,low polyreactivity
9,QVQLVESGGGLVQAGGSLRLSCAASGSTFVLYAMGWYRQAPGKERELVAAITKRGGNTYYADSVKGRFTISRDNAKNTVYLQMNSLKPEDTAVYYCAADHVRSPFDSWGQGTQVTVSS,low polyreactivity
10,QVQLVESGGGLVQAGGSLRLSCAASGFTFVLYAMGWYRQAPGKERELVATITSSGRTNYADSVKGRFTISRDNAKNTVYLQMNSLKPEDTAVYYCAARGGRRYDYWGQGTQVTVSS,high polyreactivity
11,QVQLVESGGGLVQAGGSLRISCAASGITFWYYAMGWYRQAPGKERELVAAITRSGRTNYADSVKGRFTISRDNAKNTVYLQMNSLKPEDTAVYYCNAASLRYSYTLFDSWGLGTQVTVSS,high polyreactivity
12,QVQLVESGGGLVQAGGSLRLSCAASGSILVQSAMGWERQAPGKERELVAAISRGGSTNYADSVKGRFTISRDNPKNTVYLQMNSLKPEDTAVYYCAARRPWGEYYWGQGTQVNVSS,low polyreactivity
13,QVQLVESGGGLVQAGGSLRLSCAASGYIFNYNAMGWYRQAPGKERELVAVIRVSVGSTYYADSVKGRFTISRDNAKNTVYLQMNSLKPEDTAVYYCAADRGARGDYWGQGTQVTVSS,high polyreactivity
14,QVQLVESGGGLVQAGGSLRLSCAASGSTFPVNTMGWYRQAPGKERELVAAISSDDNTNYADSVKGRFTISRDNAKNTVYLQMNSLKPEDTEVYYCAVKGHPAYVEVPPRYAWEFDYWGQGTQVTVSS,low polyreactivity
15,QVQLVESGGGLVQAGGSLRLSCAASGRIFGVYAMGWYREAPGKEREVVAAITYRGASTYADSVKGRFTISRVNAKKTVYLQMNSLKPEDTAVYYCATYPQYYFRYDYWGQGTQVTVSS,high polyreactivity
16,QVQLVESGGGLVQAGGSLRLSCAASGSTLYYNAMGWYRQAPGKERELVAAITSGGSTSYADSVKGRFTISRDNAKNTVYLQMNRLKPDDTAVYYCAAVFYRRFDYWGQGTQVTVSS,low polyreactivity
17,QVQLVESGGGLVQAGGSLRLSCAASGSTFYPTYAMGWYRQAPGKERELVATITGSGGSTYYADSVKGRFTISRDNAKNTVYLQMNSLKPEDTAVYYCAADRWYSRYTRYGYWGQGTQVTVSS,low polyreactivity
18,QVQLVESGGGLVQAGGSLRLSCVASARTFFRYAMGWYRQAPGKERELVADITRGGSTYYADSVKGRFTISRDNAKNTVYLQMNSLKPEDTAVYYCNADGRVQRKYDYWGQGTQVTVSS,high polyreactivity
19,QVQLVESGGGLVQAGGSLRLSCAASGSIFGGNAMGWYRQAPGKERELVAAITSTVSTNYADSVKGRFTISRDNAKNTVYLQMNSLKPEVTAVYYCATDSSNVEGDYWGQGTQVTVSS,low polyreactivity
20,QVQLVESGGGLVQAGGSLRLSCAASGSTFPPNAMGWYRQAPGKERELVAVISNGGSNTRYADSVKGRFTISRDIAKNTVYLQMNSLKPEDTAVYYCAADYEYSGYGYWGQGTQVTVSS,high polyreactivity
21,QVQLVESGGGLVQAGGSLRLSCAASGSIFIANAMGWYRKAPGKERELVAAISRSGSTTYYADSVKGRFTISRDNAKNTVYLQMNSLKPEDTAVNYCNARYSLHSYYWFIYDSWGQGTQVTVSS,low polyreactivity

row,Sequence,polyreactivity (PSR sort gate)
1,QVQLVESGGGLVQAGGSLRLSCAASGFIFDIYAMGGYRPAPGKERELVAAISSGGSTNYADSVKGRFTISRDNAKNTVYLQMNSLKPEDTAVYYCAADRSDLAEEGYAGYDYWGQGTQVTVSS,low polyreactivity
2,QVQLVESGGGLVQAGGSLRLICAASGSSFSYNPMVWYRQAPGKERELVAAIRTSGGRTYYADSVKGRFTISRDNAKNTVYLQMNSLKPEDTAVYYCAKRWVYSYGYEYWGQGTQVTVSS,high polyreactivity
3,QVQLVESGGGLVQAGGRLRLSCAASGSIFFAYAMGWYRQAPGKERELVAAITSGVSTNYADSVKGRFTISRDNAKNTVYLQMNSLKPEDTAVYYCNADFDYGFDAGVAVQVVIHDYWGQGTQVTVSS,low polyreactivity
4,QVQLVESGGGLVQAGGSLRLSCAASGSTFWEYAMGWYRQAPGKERELVAAITWSTGSTYYADSVKGRFTISRDNAKNTVYLQMNSLKPEDTAVYYCNVDWGYFYTTQGFDYWGQGTQVTVSS,high polyreactivity
5,QVQLVESGGGLVQAGGSLSLSCAASGSTFSIYTMGWYRQAPGKERELVAVITKSGGSTYYADSVKGRFTISRDNAKNTVYLQMNSLKPEDTAVYYCAARRRGARHDYWGQGTQVTVSS,high polyreactivity
6,QVQLVESGGGLVQAGGSLRLTCAATGSTFHLYGMGWYRKAPGKESELVAAITKRGTSTYYADSVKGRFTISRDNAKNTVYLQINSLKPEDTAVYYCADEYTKEQRGFDYWGQGTQVTLSS,high polyreactivity
7,QVQLVESGGGLVQAGGSLRLSCAASGRTFRLYAMGWYRQAPGKVRELGAAITRGGRTNYADSVKGRFTISRDNAKNTVYLQMNSLKPEDTALYYCAARYVERHTDYYYWGQGTQVTVSS,low polyreactivity
8,QVQLVESGGGLVQAGGSLRLSCAASGSIFWEYAMGWYRQAPGKDREFVATISARGGRTYYADSVKGRFTSSRDNAKNTVYLQMNSLKPDATAVYYCANVGVFHLRDNYRFDYWGQGTQVTVSS,low polyreactivity
9,QVQLVESGGGLVQAGGSLRLSCAASGLILYSYAMGWYRQAPGKERELVADISSGGITNYADSVKGRFTISRDNAKNTVYLQMNSLKPEDTAFYYCNADSYGGNLYIWEYYYWGQGTQVTVSS,low polyreactivity
10,QVQLVESGGGLVQAGGSLRLSCAASGFIFDRYAMGWYRQAPGKERELVAAIDTASSTNYADSVKGRFTISRDNAKNTVYLQMNSLKPEDTGVYYCNASGYYYVIYWKVSNYNYWGQGTQVTVSS,low polyreactivity
11,QVQLVESGGALVQAGGSLRLSCAASGITFKPYGMGRYRQAPGKETELVADITSGGITYYADSVKGRFTISRDNAKNTVYLQMNSLKPEDTDVYYCAAVGGRSSYRLDYWGQGTQVTVSS,low polyreactivity
12,QVQLVESGGGLFQAGGSLRLSCAASGSIFRDNVMVWYIHAPGKERELVAVITSGGSTNYADSVKGRFTISRDNAKNTVYLQMNSLKPEDTAVYYCNAAKTGSQSRLEYWGQGTQVTVSS,high polyreactivity
13,QVQLVESGGGLVQAGGSLRLSCAASGRTFHSYAMGWYRQAPGKERELVAAINNGGGTYYADSVKGRFTISRDNAKNTVYLQMNSLKPEDTAVYYCAADRYRYRYNAPRYAYDYWGQGTQVTVSS,high polyreactivity
14,QVQLVESGGGLVQAGGSLRLSCAASGSIFSPNAMGWYRQAPGKERELVAAITDSGGSTYYADSVKGRFTISRDNAKNTVYLQMNSLKPEDTAVYYCAVATGLLYKSHGYWGQATQVTVSS,low polyreactivity
15,QVQLVESGGGLVQAGGSLRLSCAASGITFQGYTIGWYRQAPGKERELVAAISSNGGRTYYADSVKGRFTISRDNAKNTVYLQMNSLKPEDTAVYYCAARKWRLIVDYWGQGTQVTVSS,high polyreactivity
16,QVQLVESGGRLVQAGGSLRISSAASGFIFYKYTMGWYRQAPGKERELVAAITRSGGSTYYADSVKGRCTISRDNAKNTVYLQMNSLKPEDTAVYYCAATQSFRRNYDYWGQGTQVTVSS,high polyreactivity
17,QVQLVESCGGLVQAGGSLRLSCAASGFICNGYTMGWSRQAPWKERELVAAISGSGGRTYYADSVKGRFTISRDNAKKTVYLQMNSLKPEDTAVYYCAASNWHSRGSGEYYWGQGTQVTVSS,high polyreactivity
18,QVQLVESGGGLVQAGGSLRLSCAASGFTFIGYAMGWSRPAPGKERELVAAITWRGGRTYYADSVKGRFSISRDNAKNTVYLQMNSLKTEETAVYYCAADGYTVGNSYYWGHGTQVTVSS,high polyreactivity
19,QVQLVESGGGLVQAGGSLRLSCAASGSTFLDNAMGWYRQAPGKERELVAAISSDGSTYYANSVKGRFTISRDNAKNTVYIQMNSLKPEDTAVYYCAAEYRYYGFWYDYWGQGTQVTVSS,high polyreactivity
20,KVQLVESGGGLVQAGGSLRLSCAASGSIFWFYAMGWYRQAPGKEREFVATISRSCGSTYYADSVKGRFTISRDNAKNTDYLQMNSLKPEDTAVYYCIARGPRSHRYDYWGQGTQVNVSS,high polyreactivity
